Experiment: yeast display, Sf9 membrane polyspecificity reagent, FACS + sequencing; frameworks hold sequencing errors
Summary of the method: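 In a synthetic yeast display library (Saccharomyces cerevisiae BJ5465), nanobody expression was induced with galactose for 36–48 hours. FACS gates were set low and high (top ~1%) using anti-HA fluorescence for expression and streptavidin fluorescence for binding of the Sf9 membrane reagent. Each polyreactivity label is drawn from the gate of origin.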

| Sequence | polyreactivity (PSR sort gate) |
| --- | --- |
| QVQLVESGGGLVQAGGSLRLSCAASGFTFTHYAMGWYREAPGKERELVAAISTSVGSKYYADSVKGRFTISRDNAKNTVYVQMNSLKPEDTAVYYFAARRDGWVQWGNYYWGQVTQVTVSS | low polyreactivity |
| QVQLVESGGGLVQAGGSLRLSCAASGRTFQFYAMGWYRQAPGKERELVAAITSGGSTYYADSVKGRFTISRDNAKNTVYLQMNSLKPEDTAVYYCNAKYNGYYRRFSEYDYWGQGTQVTVSS | high polyreactivity |
| QGQLVESGGALVQAGGTLRLSCAASGIIFSGNGMGWYRQAPGNVRELVAAITAGAGTNYADSVKGRFTISRDNAKNSVYLQMHSLKPEDPGVYYCAVDGRSVPAWWPRFDYWGQGTQVTVSS | low polyreactivity |
| QVQLVESGGGLVQAGGSLRLSCAASGFTFVRYVMGWYRQAPGKERELVAAISRSGGSTHYADSVKGRFTISRDNAKNTVYLQMNSLKPEDTAVYYCADASPRWPGQGDYWGQGTQVTVSS | high polyreactivity |
| QVQLVESGGCLVQAGGSLRLSCAASGFIFDPYVMGWYIQAPGKERELVAAITYNGGRTYYADSVKGRFTISRDNAKNTVYLQMNSLKPEDTAVYYCNKDYRIGQTWYDYWGQVTQVTVSS | low polyreactivity |
| QVQLVESGGGLVQAGGSLRLSCAASGSTFRYYTMGWYRQAPGKERELVASISRSGSTSYADSVKGRFTISRDNAKNTVYLQMNSLKPEDSAVYYCAGESYFGAYAGYDYWGQGTQVTVSS | low polyreactivity |
| QVQLVESGGGLVQAGGSLRLSCAASGSTFSRYAMGWYRQAPGKERELVAAISWGGNTYYADSVKGRFTISRDNAKNTVYLQMNSLKPEDTAVYYCNRYSKLYNTMDYWGQGTQVTVSS | high polyreactivity |
| QVQLVESGGGLVQAGGSLRYICAASGFTFRPKVMGWYRQAHGKERELVAAISGSGGSTYYADSVKGRFTISRDNAKNTVYLQMNSLKPEDTAVYYSKDFPAFYDFGYWGQGTQVTVSS | high polyreactivity |
| QVQLVESGGGLVLARGTLRLSCPASGFTFSRYAMGWYRQAPGKERELVAAISRTGGRTYYADSVKGRFTISRDNAKNTVYLQMNSLKPVDTAVYYCARLPVHSHLRQTYAMEYWGQGTQVTVSS | high polyreactivity |
| QDQLVESGGGLVQAGGSLRLSCAASGITSNPYDMGWYRQAAGKERELVAVITSGGSTSYADSVKGRFTISRDNAKNTVYLQLISLKREDTAVYYCNSVYAGWRGGNYWGQGTQVTVSS | low polyreactivity |
| QVQLVESGGGLVQAGGSLRLSCAASGGLFSVYAMGWYRQAPGKERELVASITVSGGSTSYADSVKGRFTISRDNAKNTVYLQMYSLKPEDTAVYYCNTDFAQAHTLSWYEDMDYWGQGTQVTVSS | low polyreactivity |
| QVQLVESGGGLVQAGGSLRLSCAASGRTFRRYTMGWYRQAPGKERELVATISKTGGSTYYADSVKGRFTISRDNAKNTVYLQMNSLKPEDTAVYYCAARSVALFIMYYWGQGTQVTVSS | high polyreactivity |
| QVQLVESGGGLVQAGGSLSLSCAASGNIFWGNAMGWYRQAPGKERELVAAITSIDSSTYYADSVKGRFTISRDNAKNTVYLQMNSLKPEDTAVYYCAADGDWYGYIWQSDDGYDSWGQGTQVTVSS | low polyreactivity |
| QVQLVESGGGLVQAGGSLRLSCAASGGTFGSYAMGWYRQAPGKERELVAGITGSGGITKYADSVKGRFTISRDNAKNTVYLQMNSLKPEDTAVYYCNADYSVWYIRLSAYFTYDYWGQGTQVTVSS | high polyreactivity |
| QVQLVESGGGLVQAGGSLRLSCAASGRTFPVNAMGWYRQAPGKERELVAAIRRRGGSTYYADSVKGRFTISRDNAKNTVYLQMNSRKPEDTAVYYCAADKSSSFSYSYGYWGHGTQVTVSS | low polyreactivity |
| QVQLVESGGGLVQAGGSLRLSCAASGSIFVYNPMGSYREPPGKERELVAAISQRGGSTYYADSVKGRFTISRDNANNTVYLQMYSLKPEDTAVYYCAAGPGDSGDDYWGQGTQVTVSS | low polyreactivity |
| QVQLVESGGGLVQAGGSLRLSCAASGGTFYSYAMGWYRQAPGKERELVAAISRRGGSTYYADSVKGRFTISRDNAKNTVYLQMNSLKPEDTAVYYCNTYIYQVRDDYWGQGTQVTVSS | high polyreactivity |
| QVQLVQSGGGLVQAGGSLRLSCAASGSTFYQYAMGWYRQSPGKERELVAAISRSGSTNYADSVKGRFTHSRDNAQNTVYLQMNSMKPEDSAVYYCAARLGTRQYKMDYWGQGTQVTVSS | high polyreactivity |
| QVQLVESGGGLVQAGGSLRLSCAASGTTFTAYAMGWYREAPGKERELVAAINWSGGTTYYADSVKGRFTISRDNAKNTVYLQMTSLKPEDTAVYYCAVDGNFFVEVSPYDYWGQGTQVTVSS | low polyreactivity |
| QVQLVESGGGLVQAGGSLRLSCAASGFTFGRNAMGWYRQAPGKERELVARITTGGSTNYADSVKGRFTISRDHAKNTVDLQMNRLKPEDTAVYDCAATYRSLALFWTYGYWGQGTQVTVSS | low polyreactivity |
| QVQLVESGGGLVQAGGSLRLSCAASGFTIFIYAMGWYRQAPGKEREFVAAITGSGGSTYYADSVKGRFTISRDNAKNTVYLQMNSLKPEDTAVYYCAAESEYVYWYYVDYDYWGQGTQVTVSS | high polyreactivity |
| QVQLQESGGGLVQAGGSLRLTCAASGSISAVAAMGWYRQAPGKEREFAASVNWGTNTNYADSLKGRFTISRDNAINTLYLQMNSLNPEDTAVYYCGVLPDWETRHDYWGHGTQVTVSS | low polyreactivity |

| Sequence | polyreactivity (PSR sort gate) |
| --- | --- |
| QVQLVESGGGLVQAGGSLRLSCAASGITLVTYAMGWYRQAPGKERELVAAISRSGGRTYYADSVKGRFTISRDNAKNTVDLQMNSLKPEDTAVYYCATRYHVGKDLYGYWGQGTQVTVSS | high polyreactivity |
| QVQHVESGGGLVQAGGSLRLSSAASGFTFSRNAMGWYRQAPGKERELVAAIDSGGSTDYADSVKGRFTISRDNAKNTVYLQMNSLKPEDTAVYYCNVDGYYLFVRGYEYWGQGTQLTVSS | low polyreactivity |
| QVQLVESGGCLVQAGGTLRLSCAASGRIFVSYVMGWYSQAPGKEREFVAAIRRSGSSTYYADSVKGRFTISRDNEKNTVYLQMNSLKPEDTAVFYCAAYQRSRTLRRYDYWGQGTEVTVSS | high polyreactivity |
| QVQLVESGGGLVQAGGSLRLSCAASGFTFSRYAMGWYRQAPGKEREYVAAISWSGGSTYYADSVKGRFTISRDNAKNTVYLQMNSLKPEDTAVYNCNAGAQLLASQTRYDYWGQGTQVTVSS | low polyreactivity |
| QVQLVESGGGLVQAGGSLRLSCAASGINFVGYAMGWYRQAPGKERELVAAISTSSRTYYADSVKGRFTISRDNAKITVYLHMNSLKPDDTAVYYCNARGTRWYYRHDYWGQGTQVTVSS | high polyreactivity |
| KVQLVESGGGLVQAGGSLRLSCAASGNTFYHYAMGWYRQAPGKERELVAGIRYNGGSTYYADSVKGRFTISRDNAKNTVYLHMKSLKPEDTAVYYCATKGYTGYAYRYGYWGQGTQVTVSS | high polyreactivity |
| QVQLVESGGGLVQAGGSLRLSCAASGFTFYSYAMGWYRQAPGKERELVAAISKRGGDTSYADSVKGRFTISRDNAKNTVYLQMNSLKPEDTAVYYCAKVYVPYGSSGGFLSRYNYWGQGTQVTVSS | high polyreactivity |
| QVQLVDSGAGLVQAGGSLRLSCAASGSIYYRYALGWYRQAPRQVRELVAAITQSTDSTYYADSVKGRFTISRDNAKNTVYLQMNSLKPEDTAVYYCAAYLVYYRPYAYGYWGQGTQVTVSS | low polyreactivity |
| QVQLVESGGGLVQAGGSLRLSCAASGSIFSIYAMGWYRQAPGKERELVAAISWNGGSTYYADSVKGRFTISRDNAKNTVYLQMNSLKPEDTAVYYCAVDEGPTKVRFGYWGQGTQVTVSS | high polyreactivity |
| QVQLVESGGGLVQAGGSLRLSCAASGYTFDVYAMGWYRQAPGTERELVAAISDSGGSTYYADSVKGRFTISRDNAKNTVYLQMNSLKPEDTAVYFCAAGYDYFYAIVSPSEYDYWGQGTQVTVSS | low polyreactivity |
| QVQLVESGRGLVQAGGSLRLSCAASGSIFQKYTMGWYRQAPGKERELVAGINTSGANTYYADSVKGRFTISRDNAKNTVYLQMNSLKPEDTAVYYCAAARPWFAYYYWGQGTQVTVSS | high polyreactivity |
| QVQLVESGGGLVQAGGSLRLSCAASGSTIGYYAMGWYRQAPGTERELVAAITRSGGSTSYADSVKGRFTISRDNAKNTVYLQMNSLKPEDTAVYYCAARFYRPYYARQGYNYWGQGTQVTVSS | high polyreactivity |
| QVQLVESGGGLGQAGGSLRLSCAASGFNFYGYAMGWYRQAPGKERELVAAISSGGGRTYYADSVKGLFTISRDNAKNTVYLQMNSLKPEDTAVYYCAAKVYFYTGGGGEDYWGQGTKVTVSS | low polyreactivity |
| QVQLVESGGGLVQAGGSLRLSCAASGNIFYGYAMGWYRQAPGKERELVARINWSGSRTYYADSVKGRFTISRDNAKNSVYLQMNSLKPEDTAVYYCNTSTSRVPGNGDYWGQGTQVTVSS | high polyreactivity |
| QVQLVESGGGLVQAGGSLRLSCASSGFTFAYYAMGWYRQAPGKERELVAAISSRGGSTYADSVKGRFTISRDNAKNTVYLQMNSLKPEYTAVYYCNAVVPRSRYFSWTYDYWGQGTQVTVSS | high polyreactivity |
| QVQLVESGGGLVQAGGSLRLSCAASGRIFKDYAMGWYRQAPGKEREFVARISSRGGRTYYADSVKGRFTISRDNAKNTVYLQMNSLKPEDTAVYYCAVTTSPYRPTKFDYWGQGTQVTVSS | high polyreactivity |
| QVHLVESGGRLVLAGGSLRLSCAASRRIFDLNAMRGYIQAPGKERELFAAITNTGSTNYADSVKGRFTISRDNAKNTVYLQMNSLKPEDTAVYYCARTYWLRYFGYRDDEYDYWGQGTQVTVSS | low polyreactivity |
| QVQLVESGGGLVQAGGSLRLSCAASGFIFEWNGMGWYRQAPGKERELVAAITWSGGSTYYADSVKGRFTISRDNAKNTVYLQMISLKPEDTAVYYCAADFPEYYLPYDNWGQGTQVTVSS | low polyreactivity |
| QVQLVESGGGLVQAGGSLRLSSAASGIIFPGYAMVWYRQAPGKERELVAAISSGGDTYYADSVKGRFTISRDNAKNTVYLQMNSLKPEDTGVYYCTAAQLSSDRTSNYGYYPWYEYWGQGTQVTVSS | low polyreactivity |
| QVQLVESGGGLVQAGGSLRLSCAASGRTFNVYAMGWYRQAPGKERELVASISSSDTTNYADSVKGRFTISRDNAKNTVYIQMNSLKPEDTAVYYCAADYTPDLLSKVDYWGQGTQVTVSS | low polyreactivity |
| QVQLVESGGGLVQAGGSLRLSCAASGGTRAHNAMGLYRQAPGKERELVAAISWRGGSTYYADSVKGRCTISRDNAKNTVYLQMNSLKPEDTAVYYCAKEQYVPDRPSFKNLNTYDYWGQGTQVTVSS | low polyreactivity |
